This note sets out measurements from patent publication US12286461B2, “Recombinant fused polypeptide and use thereof” (priority 2019, dated 2025).

The test system of assay [1] is SD rats with CCl4-induced hepatic fibrosis. Kind of assay: CCl4-induced hepatic fibrosis animal model. It is filed as in vivo. Particulars: 40% CCl4 i.p. twice a week for 8 weeks, fused polypeptides 6 mg/kg s.c. once every five days. As to the method: Modeling was performed on the rats. Each group other than the blank group was injected with 40% CCl4 intraperitoneally twice a week, the first injection was performed at 3 mL/kg, and then injection was performed at 2 mL/kg. Modeling was performed for 8 weeks to induce hepatic fibrosis. After the intraperitoneal injection of CCl4 for the fourth time, the drugs were administered according to Table 3. After induction for 8 weeks, the administration was stopped. The SD rats were dissected the next day, and blood was taken. The liver tissue was stored in a refrigerator at −80° C. for further use. The expression of HYP in the hepatic tissue of rats was detected. [table]

Assay [2] concerns SD rats with bleomycin-induced pulmonary fibrosis. Kind of assay: Bleomycin-induced pulmonary fibrosis animal model. In kind it is in vivo. The note with it: for Survival rate (%): bleomycin 5 mg/kg intratracheal, dosage 10 mg/kg (Table 2), administration cycle 15 days from day 7 after modeling; for content of TGF-β1 in serum, difference from the model group: fused polypeptides 10 mg/kg s.c. once every five days, nintedanib 25 mg/kg intragastric once a day. As to the method: SD rats were anesthetized by intraperitoneal injection of 4% chloral hydrate with a concentration of 1 mL/100 g. After anesthesia, the rats were fixed and their necks were disinfected by using cotton with 75% alcohol. The skin of the rat neck was longitudinally cut with scissors, and the fascia and muscle were longitudinally bluntly torn with tweezers to expose the trachea. A syringe was inserted into the trachea to inject 5 mg/kg bleomycin, while a blank group was injected with an equal amount of normal saline. Then a rat plate was quickly erected and rotated, the rats' breathing was observed, the neck wound was sterilized after rotation and was sewn, and an amoxicillin anti-inflammatory drug was sprinkled on the suture. After the operation, the rats were put back into a dry and clean cage for resting, waiting for awakening. The rats were awakened after about 1-2 hours, and then fed normally. On the 7th day after modeling, modeling group animals randomly fell into a model group, a Nintedanib positive drug group, recombinant fused polypeptide 1, 2, 3 and 4 dosage groups, and a normal control group, and the groups were administered separately for an administration cycle of 15 days. Living situations of rats were observed every day and their weights were weighed. After administration for 15 days, the eyeballs were removed and blood was taken, the rats were dissected, and lungs were taken. The content of TGF-β1 in serum and the content of HYP in lung tissues were detected.

The subject of the next assay is Mycoplasma pneumoniae. Kind of assay: Mouse pneumonia model, mycoplasma pneumonia. Particulars: BALB/C mouse pneumonia model, nasal drip; average ± standard deviation. In kind it is in vivo. From the text:
(§1) A mouse pneumonia model was successfully established by using a nasal drip method. BALB/C mice with a body weight of 18-24 g were selected, and then anesthetized with ether on day 0, day 1 and day 2, respectively, prepared Streptococcus pneumoniae bacteria solution, adenovirus concentrated solution, Mycoplasma pneumoniae, Chlamydia pneumoniae, protozoa and pneumonia fungi were slowly dropped into the nasal cavity of the mice, so that the bacteria solutions entered the trachea and bronchi, and the bacteria solutions were prevented from flowing into the esophagus during the operation to avoid inactivation of the bacteria solutions, so that the mouse pneumonia model was established. After the model was successfully established, the recombinant fused polypeptides according to the present invention were administered.

Another assay deals with pneumonia fungi. Kind of assay: Mouse pneumonia model, fungal pneumonia. In kind it is in vivo. Particulars: BALB/C mouse pneumonia model, nasal drip; average ± standard deviation.
Description: as §1

The next assay deals with protozoa. Kind of assay: Mouse pneumonia model, protozoal pneumonia. The note with it: BALB/C mouse pneumonia model, nasal drip; average ± standard deviation. It is filed as in vivo.
Description: as §1

For the next assay, the system named is Chlamydia pneumoniae. Kind of assay: Mouse pneumonia model, chlamydia pneumonia. In kind it is in vivo. Particulars: BALB/C mouse pneumonia model, nasal drip; average ± standard deviation.
Description: as §1

For a further assay, the system named is pulmonary infections. Kind of assay: Mouse pneumonia model, pneumonia caused by pulmonary infections. In kind it is in vivo, BALB/C mice. Particulars: BALB/C mouse pneumonia model, nasal drip, average ± standard deviation.
Description: as §1

The test system of another assay is adenovirus. Kind of assay: Mouse pneumonia model, viral pneumonia. The note with it: BALB/C mouse pneumonia model, nasal drip; average ± standard deviation. It is filed as in vivo.
Description: as §1

For another assay, the system named is Streptococcus pneumoniae. Kind of assay: Mouse pneumonia model, bacterial pneumonia. It is filed as in vivo. The note with it: BALB/C mouse pneumonia model, nasal drip; average ± standard deviation.
Description: as §1

Assay [3] relates to mice with bleomycin-induced skin fibrosis. Kind of assay: Bleomycin-induced skin fibrosis model. In kind it is in vivo, C57/BL black mice. The note with it: C57/BL mice, bleomycin 10 μg/mL s.c. daily for 28 days, 10 mg/kg s.c. once every five days, 6 times, FIG. 6. As to the method: Bleomycin (10 μg/mL) was injected subcutaneously every day for 28 days to form skin fibrosis. During the modeling period, the administration groups were given drugs for treatment. After modeling, the mice were killed on the next day, and the skin tissue of the mouse back was taken to detect the content of HYP in the skin tissue. [table]

The subject of assay [4] is mice with myocardial fibrosis. Kind of assay: Isoprenaline-induced myocardial fibrosis animal model. It is filed as in vivo. The note with it: BALB/c mice, isoprenaline 5 mg/kg s.c. daily for 7 days, 12 mg/kg s.c. (Table 5), after the 8th day, FIG. 5. As to the method: In the model group, the experimental mice were injected with isoprenaline (ISO) (5 mg/kg) subcutaneously on the back of the mice every day for 7 consecutive days, and the mice were injected with normal saline subcutaneously (200 μL/mouse) every day. In the blank group, normal saline was injected subcutaneously (200 μL/mouse) every day. […] After the 8th day, blood was taken and was centrifuged, the supernatant was taken, and the content of TGF-β1 in serum was detected.

Assay [5] concerns SD rats with renal fibrosis. Kind of assay: Renal fibrosis animal model (ureter ligation). Particulars: 6 mg/kg s.c. once every five days, after 15 days. In kind it is in vivo. As to the method: A renal fibrosis animal model was established. SD rats were anesthetized with 4% chloral hydrate, injected with 1 mL/100 g intraperitoneally, fixed to an operation board, and sterilized in an operation area for further use. […] Muscular layers and abdominal walls were sewed layer by layer, the suture was disinfected with alcohol. After SD rats woke up, the rats were put into a cage for feeding. In the blank group, ureter was not ligated, and other steps were the same.
Then, the animals fell into a blank group, a model group, and recombinant fused polypeptide administration groups, and the administration was started on the second day after the operation, and was performed for 15 days. After administration for 15 days, blood was taken and supernatant was taken to detect the content of TGF-β1 in serum.

Setting [6] is: listed as recombinant fused polypeptide I.

Regarding `COC(=O)c1ccc2c(c1)NC(=O)/C2=C(\Nc1ccc(N(C)C(=O)CN2CCN(C)CC2)cc1)c1ccccc1` [Nintedanib, nintedanib, reference compound], the “content of HYP in liver tissue, difference from the model group” value in assay [1] (FIG. 3) was “highly significantly different from the model group (***P<0.001)”. Further, in assay [2], the “Survival rate (%)” value was determined as 85.7%. Besides, the “content of TGF-β1 in serum, difference from the model group” value in assay [2] (bleomycin pulmonary fibrosis, after 15 days, FIG. 2) was “highly significantly different from the model group (**P<0.01)”.

Take Penicillin [reference compound]: in the assay with Mycoplasma pneumoniae, the “Inhibitory effect, Mycoplasma pneumonia” value stood at 43.21 ± 4.56. Further, in the assay on pneumonia fungi, the “Inhibitory effect, Fungal pneumonia” value amounted to 38.89 ± 2.24. Also, the “Inhibitory effect, Protozoal pneumonia” value with protozoa is recorded as 45.62 ± 5.43. For the same molecule, the “Inhibitory effect, Chlamydia pneumonia” value in the assay with Chlamydia pneumoniae was 39.13 ± 5.23. In addition, the “Inhibitory effect, Pneumonia caused by pulmonary infections” value in the assay with pulmonary infections stood at 45.78 ± 3.65. Also, in the assay with adenovirus, the “Inhibitory effect, Viral pneumonia” value turned out to be 50.07 ± 5.12. Also, in the assay on Streptococcus pneumoniae, the “Inhibitory effect, Bacterial pneumonia” value amounted to 39.21 ± 5.35.

B1: PRCWRGEGGGGIVRRADRAAVPGGGGRGDGGGGSGGGGSGGGGSSDKPGGGGTSLDASIIWAMMQNGGGGLSKL (protein)
chain: PRCWRGEGGGGIVRRADRAAVPGGGGRGDGGGGSGGGGSGGGGSSDKPGGGGTSLDASIIWAMMQNGGGGLSKL
notes: Recombinant fused polypeptide X-linker1-Y expressed in 293 cells
With B1, in the assay on Mycoplasma pneumoniae, the “Inhibitory effect, Mycoplasma pneumonia” value came out at 38.47 ± 4.35. Moreover, the “content of HYP in skin tissue, difference from the model group” value in assay [3] (listed as recombinant fused polypeptide 1, 10 mg/kg) was “highly significantly different from the model group (**P<0.01)”; in assay [3] (listed as recombinant fused polypeptide I, 10 mg/kg), “can lower the hydroxyproline content”. For the same molecule, the “Inhibitory effect, Fungal pneumonia” value in the assay with pneumonia fungi turned out to be 49.68 ± 5.74. In the assay on protozoa, the “Inhibitory effect, Protozoal pneumonia” value worked out at 54.26 ± 5.32. Besides, the “content of HYP in liver tissue, difference from the model group” value in assay [1] (FIG. 3, listed as Recombinant fused polypeptide 1) was “highly significantly different from the model group (***P<0.001)”; in assay [1] (FIG. 3, listed as recombinant fused polypeptide I), “can lower the HYP content”. The “content of TGF-β1 in serum, difference from the model group” value in assay [4] (listed as recombinant fused polypeptide 1) is recorded as “significantly different from the model group (**P<0.01)”; in assay [4] (setting [6]) it was “can lower the TGF-β1 content”; in [2] (bleomycin pulmonary fibrosis, after 15 days, FIG. 2, listed as fused polypeptide 1), “highly significantly different from the model group (**P<0.01)”; in assay [2] (bleomycin pulmonary fibrosis, after 15 days, FIG. 2, listed as recombinant fused polypeptide I), “can lower the TGF-β1 content”; in assay [5] (FIG. 4, listed as recombinant fused polypeptide 1, 6 mg/kg), “highly significantly different from the model group (***P<0.001)”; in assay [5] (FIG. 4, listed as recombinant fused polypeptide I, 6 mg/kg), “can lower the TGF-β1 content”. Further, the “Inhibitory effect, Chlamydia pneumonia” value in the assay with Chlamydia pneumoniae came out at 39.26 ± 4.66. Besides, the “Inhibitory effect, Pneumonia caused by pulmonary infections” value with pulmonary infections is on record as 52.47 ± 4.28; with pulmonary infections (setting [6]) it was “inhibitory effect”. Moreover, the “Inhibitory effect, Viral pneumonia” value in the assay with adenovirus came out at 54.68 ± 5.23. Moreover, the “Survival rate (%)” value is listed as 85.7% in [2] and “equivalent to that of the positive drug group” in assay [2] (listed as fused polypeptide 1). In assay [2] (bleomycin pulmonary fibrosis, 10 mg/kg s.c. once every five days, after 15 days, FIG. 1), the “hydroxyproline (HYP) content in lung tissue” value is reported as “can lower the hydroxyproline content”. Besides, in the assay on Streptococcus pneumoniae, the “Inhibitory effect, Bacterial pneumonia” value is given as 38.43 ± 8.25.
